Results taken from patent US20060057696A1, “Sugar chain synthases” (priority 2002, published 2006).

T1: human ST6Gal I (Homo sapiens, UniProt P15907)
T1 sequence (P15907 1-406): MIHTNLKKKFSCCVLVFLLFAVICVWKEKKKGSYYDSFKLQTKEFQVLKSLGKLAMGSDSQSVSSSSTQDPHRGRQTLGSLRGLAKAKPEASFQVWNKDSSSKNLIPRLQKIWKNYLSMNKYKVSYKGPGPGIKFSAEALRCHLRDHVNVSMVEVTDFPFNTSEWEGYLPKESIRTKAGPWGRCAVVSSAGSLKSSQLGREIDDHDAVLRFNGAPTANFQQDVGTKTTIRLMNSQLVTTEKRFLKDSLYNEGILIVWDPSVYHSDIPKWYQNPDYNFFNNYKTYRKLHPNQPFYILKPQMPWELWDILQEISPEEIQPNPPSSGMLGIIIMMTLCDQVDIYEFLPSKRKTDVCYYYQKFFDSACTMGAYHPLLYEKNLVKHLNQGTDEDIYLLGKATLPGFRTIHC

T2: PA-hST6Gal II (human ST6Gal II) (Homo sapiens, UniProt Q96JF0)
T2 construct: amino acids 33-529 in the case of human ST6Gal II; signal peptide of mouse immunoglobulin IgM (N); made in house; host or cells: COS-7 cells, transient expression of pcDSA-hST6Gal II; protein recovered from medium on IgG-Sepharose
T2 sequence (Q96JF0 33-529): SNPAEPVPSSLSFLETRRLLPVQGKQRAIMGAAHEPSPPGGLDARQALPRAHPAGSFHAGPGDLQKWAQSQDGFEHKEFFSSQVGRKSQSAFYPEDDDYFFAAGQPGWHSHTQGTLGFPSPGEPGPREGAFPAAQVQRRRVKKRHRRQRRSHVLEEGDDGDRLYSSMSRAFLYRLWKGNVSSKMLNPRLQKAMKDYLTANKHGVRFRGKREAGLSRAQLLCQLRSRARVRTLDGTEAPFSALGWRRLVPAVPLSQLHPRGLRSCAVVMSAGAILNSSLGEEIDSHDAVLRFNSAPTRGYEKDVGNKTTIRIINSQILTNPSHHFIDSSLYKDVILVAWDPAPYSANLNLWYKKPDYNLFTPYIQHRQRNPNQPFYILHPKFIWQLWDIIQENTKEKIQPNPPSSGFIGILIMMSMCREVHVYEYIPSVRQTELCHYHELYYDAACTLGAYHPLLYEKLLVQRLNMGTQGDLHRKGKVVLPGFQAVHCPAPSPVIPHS

T3: PA-mST6Gal II (mouse ST6Gal II) (Mus musculus, UniProt Q76K27, R48S)
T3 construct: amino acids 31-524 in the case of mouse ST6Gal II; signal peptide of mouse immunoglobulin IgM (N); made in house; host or cells: COS-7 cells, transient expression of pcDSA-mST6Gal II; protein recovered from medium on IgG-Sepharose
T3 sequence (Q76K27 31-524 R48S): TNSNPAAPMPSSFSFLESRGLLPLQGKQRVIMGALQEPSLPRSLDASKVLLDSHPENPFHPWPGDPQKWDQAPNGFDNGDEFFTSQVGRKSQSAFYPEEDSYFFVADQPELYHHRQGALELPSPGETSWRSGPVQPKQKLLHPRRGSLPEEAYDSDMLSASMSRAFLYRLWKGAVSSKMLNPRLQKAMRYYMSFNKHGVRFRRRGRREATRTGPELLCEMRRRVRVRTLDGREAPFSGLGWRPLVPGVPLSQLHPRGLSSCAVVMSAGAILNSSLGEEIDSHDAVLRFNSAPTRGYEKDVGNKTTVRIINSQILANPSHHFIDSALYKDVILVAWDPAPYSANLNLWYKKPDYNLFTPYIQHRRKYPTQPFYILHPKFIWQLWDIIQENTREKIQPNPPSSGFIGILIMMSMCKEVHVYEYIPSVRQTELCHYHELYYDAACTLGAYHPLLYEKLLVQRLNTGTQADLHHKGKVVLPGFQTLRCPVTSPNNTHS

B1: Ovomucoid: glycoprotein acceptor substrate which contains only N-glycans (protein, UniProt P01005 25-210, looked up)
Ovomucoid: AEVDCSRFPNATDKEGKDVLVCNKDLRPICGTDGVTYTNDCLLCAYSIEFGTNISKEHDGECKETVPMNCSSYANTTSEDGKVMVLCNRAFNPVCGTDGVTYDNECLLCAHKVEQGASVDKRHDGGCRKELAAVSVDCSEYPKPDCTAEDRPLCGSDNKTYGNKCNFCNAVVESNGTLTLSHFGKC
B2: Asialoovomucoid: desialylated ovomucoid prepared at 80° C. for 1 hour in 0.02 N HCl (protein, UniProt P01005 25-210, looked up)
Ovomucoid: B1 Ovomucoid
modifications: desialylated
notes: desialylated ovomucoid prepared at 80° C. for 1 hour in 0.02 N HCl

Columns and labels:
Format in all cases: biochemical
human ST6Gal I = biological target: T1, human ST6Gal I; test: Sialyltransferase activity of human ST6Gal I toward acceptor substrates (comparison); settings: incorporation with Galβ1,4GlcNAc taken as 100; 0.5 mg/ml glycolipids, 1 mg/ml glycoproteins and oligosaccharides
Method: (§1) Using each expression vector and lipofectamine (Invitrogen), transient expression was carried out in COS-7 cells (Kojima, N. et al. (1995) FEBS Lett. 360, 1-4). The proteins of the present invention secreted from the cells into which each expression vector had been introduced were named as PA-hST6Gal II (human) and PA-mST6Gal II (mouse). PA-hST6Gal II and PA-mST6Gal II were adsorbed to IgG-Sepharose (Amersham Pharmacia Biotech), and were then recovered from medium. Sialyltransferase activity was measured as follows according to the method of Lee et al. (Lee, Y.-C. et al. (1999) J Biol. Chem. 274, 11958-11967). A reaction mixture (10 μl) containing 50 mM MES buffer (pH 6.0), 1 mM MgCl2, 1 mM CaCl2, 0.5% Triton CF-54, 100 μM CMP-[^14C]-NeuAc, a substrate sugar chain (which was added at 0.5 mg/ml in the case of glycolipids, and at 1 mg/ml in the case of glycoproteins or oligosaccharides), and a PA-hST6Gal II or PA-mST6Gal II suspension, was incubated at 37° C. for 3 to 20 hours. Thereafter, in the case of glycolipids, the reaction product was purified with a C-18 column (Sep-Pak Vac 100 mg; Waters) and the purified product was used as a sample. In the case of oligosaccharides or glycoproteins, the reaction product was directly used as a sample. Thus, the obtained sample was subjected to analysis. In the case of oligosaccharides or glycolipids, the sample was spotted on a silica gel 60 HPTLC plate (Merck), and it was then developed with a developing solvent consisting of 1-propanol:ammonia water:water=6:1:2.5 (for oligosaccharides), or a developing solvent consisting of chloroform:methanol: 0.02% CaCl2=55:45:10 (for glycolipids). In the case of glycoproteins, analysis was carried out by SDS-polyacrylamide gel electrophoresis. The obtained radioactivities were visualized with a BAS2000 radio image analyzer (Fuji Film) and then quantified.
In contrast, there were no glycolipids, which could be substrates of both the enzymes, as far as the inventors have examined. The activity of human ST6Gal I on oligosaccharides was also examined for comparison. […] (FIG. 10).

[1] = biological target: T2, PA-hST6Gal II (human ST6Gal II); test: Sialyltransferase activity of PA-hST6Gal II toward acceptor substrates; settings: PA-hST6Gal II; incorporation with Galβ1,4GlcNAc taken as 100; 0.5 mg/ml glycolipids, 1 mg/ml glycoproteins and oligosaccharides
Method: as §1

[2] = biological target: T3, PA-mST6Gal II (mouse ST6Gal II); test: Sialyltransferase activity of PA-mST6Gal II toward acceptor substrates; settings: PA-mST6Gal II; incorporation with Galβ1,4GlcNAc taken as 100; 0.5 mg/ml glycolipids, 1 mg/ml glycoproteins and oligosaccharides
Method: as §1

Row | Molecule | Relative rate (%) Human ST6Gal I (human ST6Gal I) | Relative rate (%) Human ST6Gal II [1] | Relative rate (%) Mouse ST6Gal II [2]
1 | Asialo- α1-Acid glycoprotein: desialylated α1-acid glycoprotein prepared at 80° C. for 1 hour in 0.02 N HCl | 93.0% | 1.2% | 12.3%
2 | Asialofetuin: asialo glycoprotein acceptor substrate purchased from Sigma | 95.0% | 3.9% | 21.0%
3 | Fetuin: glycoprotein acceptor substrate containing both O-glycans and N-glycans, purchased from Sigma | 13.0% | 0% | 0%
4 | Galβ1,3GalNAcβ1,4(NeuAcα2,3)Galβ1,4Glcβ1-Cer [GM1a] | 0% | 0% | 0%
5 | Galβ1,4Glcβ1-Cer [Lactosylceramide] | 0% | 0% | 0%
6 | NeuAcα2,3Galβ1,4Glcβ1-Cer [GM3] | 0% | 0% | 0%
7 | α1-Acid glycoprotein: glycoprotein acceptor substrate purchased from Sigma | 37.1% | 1.2% | 0.75%
8 | B1 | 9.0% | 0% | 0%
9 | B2 | 12.7% | 0% | 0%
